In US20250339531A1, “DUX4 POLYPEPTIDES AND NUCLEIC ACIDS FOR TREATING INFLAMMATORY AND AUTOIMMUNE CONDITIONS” (Fred Hutchinson Cancer Center, priority 2021, published 2025):
“Also recorded” adds a separate entry of the source.

What was measured:
[1] = system: interferon-stimulated genes IFIH1, ISG20, CXCL9, and CD74; assay: IFNG induction of interferon-stimulated genes, RT-qPCR in MB135 cells with doxycycline-inducible transgenes; format: cell-based, human; settings: MB135 cells, doxycycline-induced transgene, continuous protocol, IFNG 16 h
Procedure: All myoblast experiments were conducted in immortalized MB135 or MB200 myoblast cell lines (isolated from a control or FSHD2 subject, respectively cultured in Ham's F-10 Nutrient Mix (Gibco) supplemented with 15% fetal bovine serum (Hyclone), 100 U/100 μg/ml penicillin/streptomycin (Gibco), 1 μM dexamethasone (Sigma), and 10 ng/ml recombinant human basic fibroblast growth factor (PeproTech). To differentiate the myoblasts to myotubes, media was changed to DMEM supplemented with 10 μg/ml insulin (Sigma) and 10 μg/ml transferrin (Sigma). Cell lines containing doxycycline-inducible transgenes were additionally cultured with 2 μg/mL puromycin (Sigma). Transgenes were induced with 1 μg/mL of doxycycline (Sigma) for 4 hours prior to other treatments for a total of 20 hrs. The Kitra-SRS cells (RRID:CVCL_YI69) were provided by Dr. H. Otani and Osaka University (Nakai et al., 2019) and were cultured in DMEM supplemented with 10% fetal bovine serum (Hyclone) and 100 U/100 μg/ml penicillin/streptomycin (Gibco). Biological replicates consisted of independent but parallel experiments, such as simultaneously stimulating three cell culture plates with IFNγ. Technical replicates consisted of repeat measurements of the same biological sample, such as loading the same biological sample in triplicate for analysis by RT-qPCR.
Myoblasts were transfected with either (final concentrations) 10 μM 2′,3′-cGAMP (Sigma Aldrich), 2 μg/mL poly(I:C) (Invitrogen), or 1 μg/mL 3′ppp-dsRNA RIG-I ligand (Dan Stetson Lab, UW) using Lipofectamine 2000 according to manufacturer's protocol, or were stimulated with 1000U IFNβ (PeproTech) or 200 ng/ml IFNγ (R+D Systems) by addition directly to cell culture medium. After 16 hours of immune stimulation, RNA was collected from cells using the NucleoSpin RNA Kit (Macherey-Nagel) according to manufacturer's instructions. RNA samples were quantified by nanodrop and 1 μg of RNA per sample was treated with DNase I Amplification Grade (Thermo Fisher), and then synthesized into cDNA using the Superscript IV First-Strand Synthesis System, including oligo dT primers (Invitrogen). qPCR was run in 384-well plates on an Applied Biosystems QuantStudio 6 Flex Real-Time PCR System (ABI) and analyzed in Microsoft Excel.

STAT1 = assay: Anti-FLAG co-immunoprecipitation and western blot for STAT1; format: binding, human; settings: anti-FLAG IP from MB135 cells ± IFNG
Procedure: Centrifugation at 2500 rcf at 4° C. for 5 min pelleted the nuclei, supernatant was discarded, and nuclei resuspended in 1 mL IP buffer pH 7.4 (25 mM Tris-HCl pH 7.5, 175 mM NaCl, 1 mM EDTA, 0.2% NP-40, 5% glycerol) and incubated for 1 hour at 4° C. with rotation then spun at 21000 rcf for 10 minutes at 4° C. to pellet insoluble debris. Protein concentration was determined using the Pierce BCA Protein Assay Kit (ThermoFisher, 23225). An equivalent amount of protein per sample was pre-cleared with Dynabeads Protein G (Invitrogen) bound to mouse IgG (Abcam #131368) for 1 hour at 4° C. with rotation. FLAG-tagged constructs were then immunoprecipitated with Dynabeads Protein G beads coupled to mouse anti-FLAG M2 mAb (Sigma F3165) for 3 hours at 4° C. with rotation. Beads were washed 3× with 1 mL IP buffer and eluted by adding 2× NuPage LDS Sample Buffer (Thermo Fisher, diluted from 4× with PBS) to the beads and heating for 10 minutes at 70° C.
Antibodies against STAT1 [EPR4407] (ab109320), pSTAT1 Y701 [M135] (ab29045), pSTAT1 S727 [EPR3146] (ab109461), YBX1 [EP2708Y] (ab76149), PABPC1 (ab21060), hnRNPM [EPR13509 (B)] (ab177957), PRKDC [Y393] (ab32566), and HSP90AB1 [EPR16621] (ab203085) were purchased from Abcam. Antibodies against FLAG tag [M2] (F1804) and [M2] (F3146) were purchased from Sigma Aldrich. Antibodies against DDX3X [D19B4] (8192S), hnRNPK [R332] (4675S), TRIM28 [C42G12] […]

[2] = system: proteins that co-immunoprecipitated with DUX4-CTD constructs expressed in MB135 myoblasts; assay: LC-MS of proteins co-immunoprecipitated with DUX4-CTD (Table 1) and western validation; format: binding, human; settings: kind of count not given
Summary of the method: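 Two independent experiments compared uninduced, doxycycline and doxycycline+IFNG MB135iDUX4-CTD (plus MB135iDUX4mL1dL2) myoblasts. Anti-FLAG pulldowns (3 h, 4 °C) were eluted in LDS buffer for western validation or with FLAG peptide for trypsin digestion and Orbitrap LC-MS; hits needed ≥2 PSMs in both experiments, ranked by total PSMs.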

B1: iNLS-CTD: 3×FLAG tag nls construct encoding terminal 86 amino acids of DUX4 (aa 339-424), SEQ ID NOS: 12 and 13 (protein)
chain: MDYKDHDGDYKDHDIDYKDDDDKPKKKRKVNASASARQGQMQGIPAPSQALQEPAPWSALPCGLLLDELLASPEFLQQAQPLLETEAPGELEASEEAASLEAPLSEEEYRALLEEL
modifications: 3xFLAG tag and NLS
- suppression of IFNG induction of ISGs (IFIH1, ISG20, CXCL9, CD74) [1]: suppresses a portion of the IFNG-induced ISG genes, CXCL9 and CD74
- suppression of IFNG induction of ISGs (IFIH1, ISG20, CXCL9, CD74) ([1]; listed as iDUX4aa339-424): maintained ISG suppression, though not as strongly on the IFIH1 and ISG20 genes
- suppression of IFNG induction of ISGs (IFIH1, ISG20, CXCL9, CD74) ([1]; listed as iNLS CTD): suppresses two of the four IFNG-induced

B2: longCTDmL1dL2: longCTD with first (L)LxxL(L) motif disrupted and second deleted, SEQ ID NOS: 10 and 11 (protein)
chain: MDYKDHDGDYKDHDIDYKDDDDKPPKRMRREPKKKRKVGRAPAQAGGLCSAAPGGGHPAPSWVAFAHTGAWGTGLPAPHVPCAPGALPQGAFVSQAARAAPALQPSQAAPAEGISQPAPARGDFAYAAPAPPDGALSHPQAPRWPPHPGKSREDRDPQRDGLPGPCAVAQPGPAQAGPQGQGVLAPPTSQGSPWWGWGRGPQVAGAAWEPQAGAAPPPQPAPPDASASARQGQMQGIPAPSQALQEPAPWSALPCGLLAAEAAASPEFLQQAQPLLETEAPGELEASEEAASLEAPLSEEEYRA
- suppression of IFNG induction of ISGs (IFIH1, ISG20, CXCL9, CD74) [1]: does not suppress any of the IFNG-induced ISG genes
- suppression of IFNG induction of ISGs (IFIH1, ISG20, CXCL9, CD74) ([1]; listed as iDUX4-CTDmL1dL2): did not block the panel of ISGs
- co-immunoprecipitation with STAT1 / phosphorylated STAT1 (STAT1): both show binding to STAT1; also recorded: STAT1 is associated

B3: DDX3X (protein)
chain: SHVAVENALGLDQQFAGLDLNSSDNQSGGSTASKGRYIPPHLRNREATKGFYDKDSSGWSSSKDKDAYSSFGSRSDSRGKSSFFSDRGSGSRGRFDDRGRSDYDGIGSRGDRSGFGKFERGGNSRWCDKSDEDDWSKPLPPSERLEQELFSGGNTGINFEKYDDIPVEATGNNCPPHIESFSDVEMGEIIMGNIELTRYTRPTPVQKHAIPIIKEKRDLMACAQTGSGKTAAFLLPILSQIYSDGPGEALRAMKENGRYGRRKQYPISLVLAPTRELAVQIYEEARKFSYRSRVRPCVVYGGADIGQQIRDLERGCHLLVATPGRLVDMMERGKIGLDFCKYLVLDEADRMLDMGFEPQIRRIVEQDTMPPKGVRHTMMFSATFPKEIQMLARDFLDEYIFLAVGRVGSTSENITQKVVWVEESDKRSFLLDLLNATGKDSLTLVFVETKKGADSLEDFLYHEGYACTSIHGDRSQRDREEALHQFRSGKSPILVATAVAARGLDISNVKHVINFDLPSDIEEYVHRIGRTGRVGNLGLATSFFNERNINITKDLLDLLVEAKQEVPSWLENMAYEHHYKGSSRGRSKSSRFSGGFGARDYRQSSGASSSSFSSSRASSSRSGGGGHGSSRGFGGGGYGGFYNSDGYGGNYNSQGVDWWGN
- 4. + IFNG mix ([2]; LC-MS value per protein co-immunoprecipitated from MB135 myoblasts, + IFNG mix sample (no Dox)): 1
- 4. mL1dL2 + Dox + IFNG ([2]; LC-MS value per protein co-immunoprecipitated with DUX4-CTD construct mL1dL2 in MB135 myoblasts, + Dox + IFNG): 2

B4: mouse Dux: mouse ortholog of human DUX4, SEQ ID NO:15, doxycycline inducible codon altered SEQ ID NO:16 (protein, listed as Mus musculus)
chain: MAEAGSPVGGSGVARESRRRRKTVWQAWQEQALLSTFKKKRYLSFKERKELAKRMGVSDCRIRVWFQNRRNRSGEEGHASKRSIRGSRRLASPQLQEELGSRPQGRGMRSSGRRPRTRLTSLQLRILGQAFERNPRPGFATREELARDTGLPEDTIHIWFQNRRARRRHRRGRPTAQDQDLLASQGSDGAPAGPEGREREGAQENLLPQEEAGSTGMDTSSPSDLPSFCGESQPFQVAQPRGAGQQEAPTRAGNAGSLEPLLDQLLDEVQVEEPAPAPLNLDGDPGGRVHEGSQESFWPQEEAGSTGMDTSSPSDSNSFCRESQPSQVAQPCGAGQEDARTQADSTGPLELLLLDQLLDEVQKEEHVPVPLDWGRNPGSREHEGSQDSLLPLEEAVNSGMDTSIPSIWPTFCRESQPPQVAQPSGPGQAQAPTQGGNTDPLELFLYQLLDEVQVEEHAPAPLNWDVDPGGRVHEGSWESFWPQEEAGSTGLDTSSPSDSNSFFRESKPSQVAQRRGAGQEDARTQADSTGPLELLLFDQLLDEVQKEEHVPAPLDWGRNPGSMEHEGSQDSLLPLEEAANSGRDTSIPSIWPAFCRKSQPPQVAQPSGPGQAQAPIQGGNTDPLELFLDQLLTEVQLEEQGPAPVNVEETWEQMDTTPDLPLTSEEYQTLLDML
- suppression of IFNG induction of ISGs (IFIH1, ISG20, CXCL9, CD74) [1]: completely blocked the IFNG induction of these ISG genes
- suppression of IFNG induction of ISGs (IFIH1, ISG20, CXCL9, CD74) ([1]; listed as Dux): repress the panel of ISGs even more robustly than the full-length or CTD portion of human DUX4
- suppression of IFNG induction of ISGs (IFIH1, ISG20, CXCL9, CD74) ([1]; listed as mouse DUX): completely blocked
- co-immunoprecipitation with STAT1 / phosphorylated STAT1 (STAT1): confirmed the co-immunoprecipitation of STAT1 and both phosphorylated pSTAT1-Y701 and pSTAT1-S727

B5: CIC-DUX4 fusion: Kitra-SRS CIC-DUX4 fusion protein containing the terminal 98 amino acids of DUX4, doxycycline inducible (protein)
chain: MDYKDHDGDYKDHDIDYKDDDDKPPKRMRREPKKKRKVNLEGTSGGILQKEFWRNRIQYNQSQKDILQSWFQHDPFPDKAAREQLAKEIGVPESNIQVWFKNYRVKQRKLDYKCFSEKDQTQGHDQSQHLTQEYLPKEARQKQTFITWTQKNRLVQAFERNPFPDIATRKKLAEQTGLQESRIQMWFQKQRSLYLKKSRMEPMNLLVDDPNERPDATVGWHPINLFLPTDSSHYFSCSHSSSGHETLPPVLPSTQAPWDPFRFHVSQGPNVMIMQPTQAVQEGEKSDQPLIIPNHLLTLPILTKDLDTPTPFWLQYQEEHQNHKEHSGSGVPQVKSHSQPEPEHREQQPLNLGQFDISNILQRWDEICQALLAEWEPLKGTH
- suppression of IFNG induction of ISGs (IFIH1, ISG20, CXCL9, CD74) [1]: suppressed IFNγ-induction of ISGs IFIH1, CXCL9, and CD74, although not ISG20
